Experiment [1] addresses T1, biotin-labeled human TSLP-Fc (human, biotin-labeled).
T1 construct: also called TSLP-Fc protein; TSLP-Fc-biotin
In words: cell-based blocking FACS: antibody pre-mixed with biotin human TSLP-Fc; blocked binding to cell-surface TSLPR/IL7Ra on HEK293T-TSLPR/IL7R/STAT5-Luc 5C5 cells.

Experiment [2] deals with T2, recombinant human TSLP-his (human, UniProt Q969D9 29-159, biotin-labeled in the ELISAs).
T2 construct: In-house made; not shown: His tag at the C-terminus
In words: capture ELISA: antibody captured on anti-human IgG Fc F(ab')2, biotin human TSLP-his, SA-HRP.

Among the data in patent US20260109758A1 (BIOSION, published 2026) are IC50 and EC50 values, retold here.

B1: BSI-502-007 (bispecific antibody, human IgG1, kappa)
heavy: QVQLVQSGAEVKKPGASVKVSCKASGYTFTTYWMHWVRQAPGQGLEWMGVIDPSDSDTTYNQKFKGRVTMTRDTSTSTVYMELSSLRSEDTAVYYCTRSLDGYYDYWGQGTLVTVSSGGGGSGGGGSGGGGSGGGGSDIQMTQSPSSLSASVGDRVTITCRPTENIYSYLAWYQQKPGKAPKLLIYFARTLAEGVPSRFSGSGSGTDFTLTISSLQPEDFATYYCQHHYGTPWTFGGGTKVEIKGGGGSGGGGSEVQLVESGGGLVQPGGSLRLSCAASGFTFSTYGMSWVRQAPGKGLVWVATINSNGGSTSYPDSVKGRFTISRDNAKNTLYLQMNSLRAEDTAVYYCARFFRFRNAMDYWGQGTLVTVSSASTKGPSVFPLAPSSKSTSGGTAALGCLVKDYFPEPVTVSWNSGALTSGVHTFPAVLQSSGLYSLSSVVTVPSSSLGTQTYICNVNHKPSNTKVDKKVEPKSCDKTHTCPPCPAPEAQGGPSVFLFPPKPKDTLYITREPEVTCVVVDVSHEDPEVKFNWYVDGVEVHNAKTKPREEQYNSTYRVVSVLTVLHQDWLNGKEYKCQVSNKALPAPIEKTISKAKGQPREPQVYTLPPSRDELTKNQVSLTCLVKGFYPSDIAVEWESNGQPENNYKTTPPVLDSDGSFFLYSKLTVDKSRWQQGNVFSCSVMHEALHNHYTQKSLSLSPG
light: DIQMTQSPSSLSASVGDRVTITCRTSENIYSYLAWYQQKPGKAPKFLVYNAKTLAEGVPSRFSGSGSGTDFTLTISSLQPEDFATYYCQHYYGPPTWTFGQGTKVEIKRTVAAPSVFIFPPSDEQLKSGTASVVCLLNNFYPREAKVQWKVDNALQSGNSQESVTEQDSKDSTYSLSSTLTLSKADYEKHKVYACEVTHQGLSSPVTKSFNRGEC
notes: huC2C1A1A1-V15 IgG with an anti-TSLP scFv (VH-VL) at the N-terminus of the heavy chain; AQQ and YTE already stand in the entry
For the molecule B1, in experiment [1], the IC50 (in general, the concentration that gives 50% inhibition) was 1.12 nM. The EC50 – broadly, the concentration needed to bring the measured effect to its halfway point – in experiment [2] was 0.0844 nM.

B2: BSI-502-008 (bispecific antibody, human IgG1, kappa)
heavy: DIQMTQSPSSLSASVGDRVTITCRPTENIYSYLAWYQQKPGKAPKLLIYFARTLAEGVPSRFSGSGSGTDFTLTISSLQPEDFATYYCQHHYGTPWTFGGGTKVEIKGGGGSGGGGSGGGGSGGGGSQVQLVQSGAEVKKPGASVKVSCKASGYTFTTYWMHWVRQAPGQGLEWMGVIDPSDSDTTYNQKFKGRVTMTRDTSTSTVYMELSSLRSEDTAVYYCTRSLDGYYDYWGQGTLVTVSSGGGGSGGGGSEVQLVESGGGLVQPGGSLRLSCAASGFTFSTYGMSWVRQAPGKGLVWVATINSNGGSTSYPDSVKGRFTISRDNAKNTLYLQMNSLRAEDTAVYYCARFFRFRNAMDYWGQGTLVTVSSASTKGPSVFPLAPSSKSTSGGTAALGCLVKDYFPEPVTVSWNSGALTSGVHTFPAVLQSSGLYSLSSVVTVPSSSLGTQTYICNVNHKPSNTKVDKKVEPKSCDKTHTCPPCPAPEAQGGPSVFLFPPKPKDTLYITREPEVTCVVVDVSHEDPEVKFNWYVDGVEVHNAKTKPREEQYNSTYRVVSVLTVLHQDWLNGKEYKCQVSNKALPAPIEKTISKAKGQPREPQVYTLPPSRDELTKNQVSLTCLVKGFYPSDIAVEWESNGQPENNYKTTPPVLDSDGSFFLYSKLTVDKSRWQQGNVFSCSVMHEALHNHYTQKSLSLSPG
light: DIQMTQSPSSLSASVGDRVTITCRTSENIYSYLAWYQQKPGKAPKFLVYNAKTLAEGVPSRFSGSGSGTDFTLTISSLQPEDFATYYCQHYYGPPTWTFGQGTKVEIKRTVAAPSVFIFPPSDEQLKSGTASVVCLLNNFYPREAKVQWKVDNALQSGNSQESVTEQDSKDSTYSLSSTLTLSKADYEKHKVYACEVTHQGLSSPVTKSFNRGEC
notes: huC2C1A1A1-V15 IgG with an anti-TSLP scFv (VL-VH) at the N-terminus of the heavy chain; AQQ and YTE already stand in the entry
In experiment [1], B2 returned an IC50 of 1.13 nM. Besides, the EC50 in experiment [2] was found to be 0.0742 nM.
